Reference: the RNAGym collection of RNA variant scans (doi:10.7554/elife.80360)

B1: Hairpin Ribozyme (parent)
chain: GUCCUCUUUCACGUGCGCGUGAAAGAGAGAAGUGAACCAGAGAAACACACGUUGUGGUAUAUUACCUGGUA

Variants of: B1
Assay: self-cleavage, relative activity (ratio to wild type); higher = more cleavage; co-transcriptional

Variant	self-cleavage
U8C U53A	0.674
U8C U53G	0.509
C10A A47G	0.2
C10A G29A	0.111
U9A G13U	0.479
U9A C38G	0.145
C10A A44G	0.178
U9C A31C	0.184
U9C A31G	0.592
U9C A31U	0.153
U9A A45C	0.154
U9A A45U	0.152
U9A A36U	0.283
U9C C12G	0.502
U9C C12A	0.789
U9G A43G	0.116
U9G A43U	0.111
U9A G29A	0.0709
U9A G29U	0.144
U9A G29C	0.154
U9A A31G	0.313
U8C U55C	0.132
U9C A61G	0.348
U8G A30U	0.186

Variant	self-cleavage
U9C C37A	0.355
U8G A49C	0.108
U9C A49U	0.0445
U9G C16U	0.857
U9G C16A	0.668
U9G A41G	0.593
C10A G34U	1.01
C10A G34A	0.92
U8G G68C	0.183
C10A A11C	0.624
C10A A11G	0.644
U9G A28G	1.01
U9G A28C	0.315
U9G A24U	0.483
U9A A11C	0.478
U9A A11G	0.473
U9A A11U	0.541
U9C C38A	0.225
U9C C38U	0.338
U8C U52C	0.405
U8C U52G	0.709
U8G A31C	0.13
C10A G42A	0.149
U8G G13C	0.519

Variant	self-cleavage
U8G G13A	0.618
U9A A61C	0.144
U9C U70C	0.492
C10A G25A	0.187
C10A G25U	0.356
C10A G25C	0.227
C10A G27C	0.159
U9G G51U	0.814
U9A A24G	0.461
U9C G21U	0.695
U9G G15A	0.646
U9A U33G	0.105
U9A U33A	0.0178
U9A U33C	0.177
C10A A49G	0.357
U9A	0.691
U9G	0.701
U9C	0.819
U9G A30G	0.0174
U8G G51C	0.665
U9C A23U	0.528
U8G C12G	0.146
U9C A24G	0.844
U9C A24C	0.657

Variant	self-cleavage
U9A C16U	0.624
U9A C16A	0.626
U9G A11G	0.551
U9A A49G	0.395
U8C U14C	0.802
U8C U14A	0.51
U8G G17A	0.648
U8G A39U	0.288
U8G A39C	0.406
U9C C16G	0.63
U9C C16U	1.02
U9C G34C	1.3
U9C G34A	0.812
C10A A64G	0.397
U9G G69A	0.223
U9G G69U	0.111
U8G U33A	0.136
U8G U33C	0.117
U8C U67A	0.161
U8G U67G	0.242
U8G U67C	0.189
U8G U67A	0.145
U9G C48U	0.158
U9G C48A	0.12

Variant	self-cleavage
U9G C48G	0.0994
U9G U14C	0.831
C10A G57A	0.162
U9G G40U	0.086
U9G G40A	0.179
U9C A41C	0.837
U8C U58G	0.327
C10A A41C	0.752
C10A A41U	1.04
C10A G54C	0.355
U9G C65U	0.122
U8G G40U	0.132
U9C G57A	0.167
U9A G34C	1.08
U9A A39G	0.201
U9C G40C	0.136
U9C G40U	0.169
U9C U53G	1.13
U9C U53C	0.741
U8C U33A	0.216
U9A G42A	0.132
U9G A64G	0.478
U9G A64C	0.164
U9A U58C	0.72

Variant	self-cleavage
U9G G19A	0.548
U9C A36U	0.444
U9A U20C	0.773
U8G A36G	0.76
C10A G17U	0.681
U8G C50A	0.227
U8G C50G	0.125
U9G U70G	0.539
U8G G56C	0.0783
U8G G56A	0.11
U9C G13A	0.531
U9C G13C	0.447
U9C A35U	0.708
C10A A45C	0.111
C10A A45U	0.121
U9A U63G	0.151
U9A U63A	0.212
U9A U63C	0.205
U8G U20C	0.425
U9G G32C	0.0561
U9A A30C	0.172
U9A A30G	0.148
U9C A43U	0.298
U8G A45U	0.118

Variant	self-cleavage
U9A G69U	0.245
U9A G69A	0.296
U9A G69C	0.274
C10A G40C	0.158
U9C C66A	0.248
U9C C66U	0.513
U9A U67G	0.152
U9A U67A	0.147
C10A G21A	0.856
C10A G21C	0.67
U8G C65G	0.275
U9C G68A	0.344
U8G A23U	0.738
U9A U52A	0.877
U9A U52C	0.6
U9A U60A	0.483
U9A G57C	0.185
U9A C66G	0.0453
U9C C18A	0.84
U9C C18U	1.02
U8G G19U	0.332
U8G G19A	0.533
U9C G51U	0.463
